Results taken from publication PMC4425475.

How the values were obtained:
[1] = target: sFlaF (soluble FlaF, Δ34FlaF, residues 35-164 with an N-terminal His-tag) (S. acidocaldarius); assay: SAXS
[2] = target: S-layer isolated from S. acidocaldarius strain MW001 (WT) (S. acidocaldarius (endogenous in MW001)) (UniProt Q4J6E5); assay: co-sedimentation
[3] = target: sFlaF-L101Y (S. acidocaldarius); assay: SEC
[4] = target: sFlaF-R161A (S. acidocaldarius); assay: SEC

sFlaF (soluble FlaF, Δ34FlaF, residues 35-164 with an N-terminal His-tag) (domain or fragment)
stoichiometry N [1]: 2
percent bound [2]: 50%

sFlaF-L101Y (domain or fragment)
stoichiometry N [3]: 2

sFlaF-R161A (domain or fragment)
stoichiometry N [4]: 2
